Source: US12440565

Biological target: CD40 on the surface of mature dendritic cells (mDC) (human) (UniProt P25942)
Experiment: cell-based or functional assay

Chain of CD40 on the surface of mature dendritic cells (mDC) (human) (P25942 21-277): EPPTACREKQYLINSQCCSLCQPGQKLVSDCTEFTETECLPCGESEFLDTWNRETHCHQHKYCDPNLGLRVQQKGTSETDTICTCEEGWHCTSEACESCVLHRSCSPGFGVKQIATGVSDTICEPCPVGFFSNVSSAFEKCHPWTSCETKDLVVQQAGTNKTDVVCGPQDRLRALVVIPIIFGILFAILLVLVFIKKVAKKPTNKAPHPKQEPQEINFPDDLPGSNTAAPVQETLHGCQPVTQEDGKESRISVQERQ

Q: “CD40L recombinant protein (from UniProt P29965 113-261) (ligand)” was tested. Which CD83+ (%) of mDC, agonist at 2 µg/mL (control group 81.00) did it give?
A: 88.2%

Q: And the IL-12p70 (pg/mL), agonist at 2 µg/mL (control group 50.0)?
A: 874 pg/mL
